Experimental findings from US20250179200A1 (UNIVERSITY OF CHICAGO, published 2025) are described below.

Substitutions are numbered along the chain they refer to.

T1: Human GHR-Fc-10x His (extracellular region of human growth hormone receptor fused to human Fc) (human, UniProt P10912 50-256)
T1 construct: Captured by its 10x His-tag on a Ni-NTA sensor chip for SPR; not shown: human Fc domain of vector pAB1200 with its linker; 10x His-tag replacing the AviTag
T1 sequence (looked up): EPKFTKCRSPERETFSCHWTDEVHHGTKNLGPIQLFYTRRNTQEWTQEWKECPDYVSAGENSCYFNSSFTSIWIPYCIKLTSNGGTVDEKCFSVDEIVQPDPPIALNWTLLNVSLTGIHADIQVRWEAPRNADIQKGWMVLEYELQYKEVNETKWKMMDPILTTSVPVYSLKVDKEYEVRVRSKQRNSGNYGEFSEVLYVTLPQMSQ

T2: Growth Hormone Receptor (GHR) immobilized on a high binding plate (UniProt P10912 19-264, limits assumed)
T2 sequence (looked up): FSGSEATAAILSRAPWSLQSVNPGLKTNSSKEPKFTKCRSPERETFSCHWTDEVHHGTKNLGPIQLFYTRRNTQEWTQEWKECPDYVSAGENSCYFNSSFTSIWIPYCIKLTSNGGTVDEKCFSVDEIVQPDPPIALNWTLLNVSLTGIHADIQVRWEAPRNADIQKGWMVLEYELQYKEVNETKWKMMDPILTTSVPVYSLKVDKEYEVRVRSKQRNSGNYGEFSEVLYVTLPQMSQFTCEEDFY

B1: GHR7 Fab (Fab, V domains shown)
VH: EVQLVESGGGLVQPGGSLRLSCAASGFNFSYSSIHWVRQAPGKGLEWVAYISSYYGYTSYADSVKGRFTISADTSKNTAYLQMNSLRAEDTAVYYCARLQHPSWYYYQGYHSGMDYWGQGTLVTVSS
VL: DIQMTQSPSSLSASVGDRVTITCRASQSVSSAVAWYQQKPGKAPKLLIYSASSLYSGVPSRFSGSRSGTDFTLTISSLQPEDFATYYCQQYWSSLITFGQGTKVEIKR
notes: Fab
B2: GHR13 Fab (Fab, V domains shown)
VH: EVQLVESGGGLVQPGGSLRLSCAASGFNVYYSSIHWVRQAPGKGLEWVAYIYPSSGSTSYADSVKGRFTISADTSKNTAYLQMNSLRAEDTAVYYCARSWQWYYPGWEQYGWYGMDYWGQGTLVTVSS
VL: B1 VL with Y91S, W92G, S93G, I96V
notes: Fab
B3: GHR8 Fab (Fab, V domains shown)
VH: EVQLVESGGGLVQPGGSLRLSCAASGFNISYSSIHWVRQAPGKGLEWVASIYSSYGSTYYADSVKGRFTISADTSKNTAYLQMNSLRAEDTAVYYCARSYIYSQPGFYYDSYALDYWGQGTLVTVSS
VL: B1 VL with W92G, S94W
notes: Fab
B4: GHR1 Fab (Fab, V domains shown)
VH: EVQLVESGGGLVQPGGSLRLSCAASGFNVSYSSIHWVRQAPGKGLEWVAYIYSSYGSTYYADSVKGRFTISADTSKNTAYLQMNSLRAEDTAVYYCAREYWPYYSQTGGSAMDYWGQGTLVTVSS
VL: B1 VL with Y91S, W92M, S93H, S94P
notes: Synthetic human Fab from phage display, expressed in E. coli
B5: GHR4 Fab (Fab, V domains shown)
VH: EVQLVESGGGLVQPGGSLRLSCAASGFNVYYSYIHWVRQAPGKGLEWVAYISPYSGSTSYADSVKGRFTISADTSKNTAYLQMNSLRAEDTAVYYCARQEWYAFDYWGQGTLVTVSS
VL: B1 VL with S94Y
notes: Fab; also called FAB4
B6: GHR3 Fab (Fab, V domains shown)
VH: EVQLVESGGGLVQPGGSLRLSCAASGFNVSYYSIHWVRQAPGKGLEWVAYISPSYGSTSYADSVKGRFTISADTSKNTAYLQMNSLRAEDTAVYYCARGYWGGGYWPYHAFDYWGQGTLVTVSS
VL: B1 VL with W92Y, S93T, I96L
notes: Fab
B7: GHR12 Fab (Fab, V domains shown)
VH: EVQLVESGGGLVQPGGSLRLSCAASGFNVSYYSIHWVRQAPGKGLEWVASIYSSYGSTYYADSVKGRFTISADTSKNTAYLQMNSLRAEDTAVYYCARGYWQGGYYRWGNGGLDYWGQGTLVTVSS
VL: B1 VL with Y91S, W92Y, S93G, S94W
notes: Fab
B8: GHR2 Fab (Fab, V domains shown)
VH: EVQLVESGGGLVQPGGSLRLSCAASGFNLYYSSIHWVRQAPGKGLEWVAYISPSYGSTSYADSVKGRFTISADTSKNTAYLQMNSLRAEDTAVYYCARYYDYSWPWYWHGGGPAFDYWGQGTLVTVSS
VL: DIQMTQSPSSLSASVGDRVTITCRASQSVSSAVAWYQQKPGKAPKLLIYSASSLYSGVPSRFSGSRSGTDFTLTISSLQPEDFATYYCQQYEEYPLITFGQGTKVEIKR
notes: Fab
B9: GHR5 Fab (Fab, V domains shown)
VH: EVQLVESGGGLVQPGGSLRLSCAASGFNVSYYSIHWVRQAPGKGLEWVAYISPSSGSTSYADSVKGRFTISADTSKNTAYLQMNSLRAEDTAVYYCARMYWQGGYSSYWQSYAMDYWGQGTLVTVSS
VL: B8 VL with Y91K, E92S, E93Q, P95S, I97V
notes: Fab
B10: GHR14 Fab (Fab, V domains shown)
VH: EVQLVESGGGLVQPGGSLRLSCAASGFNISSSYIHWVRQAPGKGLEWVASISSYYGYTSYADSVKGRFTISADTSKNTAYLQMNSLRAEDTAVYYCARSYGSYYGYYHYWEWYGLDYWGQGTLVTVSS
VL: B8 VL with Y91W, E92Q, E93Y, Y94W, P95S, L96P, I97V
notes: Fab
B11: GHR15 Fab (Fab, V domains shown)
VH: EVQLVESGGGLVQPGGSLRLSCAASGFNVSSSSIHWVRQAPGKGLEWVASIYSYYGYTSYADSVKGRFTISADTSKNTAYLQMNSLRAEDTAVYYCARSSGYHGWYWNGMDYWGQGTLVTVSS
VL: B8 VL with Y91W, E92Y, E93G, Y94M, P95S, I97V
notes: Fab
B12: GHR10 Fab (Fab, V domains shown)
VH: EVQLVESGGGLVQPGGSLRLSCAASGFNFSYYSIHWVRQAPGKGLEWVASISSYYGSTSYADSVKGRFTISADTSKNTAYLQMNSLRAEDTAVYYCARTEYSFGMYWAHTGMDYWGQGTLVTVSS
VL: B8 VL with Y91F, E92W, E93S, Y94S, P95E, L96P
notes: Fab
B13: GHR9 Fab (Fab, V domains shown)
VH: EVQLVESGGGLVQPGGSLRLSCAASGFNVSYSSIHWVRQAPGKGLEWVASISSSYGSTYYADSVKGRFTISADTSKNTAYLQMNSLRAEDTAVYYCARYYDYSWSTYKGIGTGAIDYWGQGTLVTVSS
VL: B8 VL with E92W, E93Y, Y94S, P95Y
notes: Fab
B14: GHR6 Fab (Fab, V domains shown)
VH: EVQLVESGGGLVQPGGSLRLSCAASGFNVYYSSIHWVRQAPGKGLEWVASIYSSYGYTSYADSVKGRFTISADTSKNTAYLQMNSLRAEDTAVYYCARGQWSGLSGYWEYKALDYWGQGTLVTVSS
VL: B8 VL with Y91V, E92G, E93G, Y94S, P95S
notes: Fab
B15: GHR11 Fab (Fab, V domains shown)
VH: EVQLVESGGGLVQPGGSLRLSCAASGFNLSYYYIHWVRQAPGKGLEWVASIYSSSGYTYYADSVKGRFTISADTSKNTAYLQMNSLRAEDTAVYYCARQYPYSWSSYGFSSGALDYWGQGTLVTVSS
VL: DIQMTQSPSSLSASVGDRVTITCRASQSVSSAVAWYQQKPGKAPKLLIYSASSLYSGVPSRFSGSRSGTDFTLTISSLQPEDFATYYCQQYFAYYSPITFGQGTKVEIKR
notes: Fab
B16: GHR3 Fab (Fab, V domains shown)
VH: B6 VH
VL: B1 VL with W92Y, S93T, I96L

The first assay addresses T1, Human GHR-Fc-10x His (extracellular …). Put plainly: SPR, GHR-Fc-10xHis captured on Ni-NTA chip, Fab as analyte, 1:1 fit. On the procedure: Surface plasmon resonance (SPR) measurements were conducted in a MASS-1 (Bruker) instrument. The target GHR-Fc (50 nM) with a 10× His-tag was captured in a Ni-NTA sensor chip. […] Flow rate was 30 ul/min and temperature 20° C. Sensograms were corrected through double referencing and fitting was done with a 1:1 binding model using the Sierra Analyzer (Bruker). For epitope binning experiments, the first FAB was injected at saturating concentrations (200 nM), followed by injection a second FAB in equal molar mixture with the first FAB, and the response unit (RU) was recorded.
Target GHR_Fc (from different species) were immobilized via a 10× His-tag to a Ni-NTA sensor chip. […] Sensograms were corrected through double referencing and 1:1 binding model fit was done using Sierra Analyzer (Bruker). To reveal different epitopes on GHR, the epitope binning experiment was performed.
In general terms: SPR reads the build-up and loss of mass on a sensor chip optically.
In general, Kd refers to the equilibrium constant for the complex coming apart. Low values mean higher affinity, high ones lower affinity. As usually defined, the koff is a measure of how fast the partners let go of each other. Low values mean a long-lived complex, high ones a short-lived complex. What is called kon is the rate constant with which the complex forms. The molecule B1 returned a Kd of 2.21 nM, a koff of 0.00129 s⁻¹ and a kon of 587000 M⁻¹ s⁻¹.
The matching figures for B2: 2.84 nM, 0.00053 s⁻¹ and 187000 M⁻¹ s⁻¹.
The matching figures for B3: 3.23 nM, 0.000505 s⁻¹ and 156000 M⁻¹ s⁻¹.
The matching figures for B4: 6.29 nM, 0.000336 s⁻¹ and 53400 M⁻¹ s⁻¹.
For B5, binding was characterised by a dissociation constant (Kd) of 1.9 nM, the koff is 0.000992 s⁻¹ and the on-rate (kon) was found to be 522000 M⁻¹ s⁻¹.
For B6 the same measures were below 1 nM, 1.32e-06 s⁻¹ and 405000 M⁻¹ s⁻¹.
The molecule B7 returned a Kd below 1 nM, a koff of 0.000168 s⁻¹ and a kon of 536000 M⁻¹ s⁻¹.
The molecule B8 displayed a dissociation constant (Kd) of 16.8 nM, a koff of 0.000873 s⁻¹ and a kon of 51200 M⁻¹ s⁻¹.
Molecule B9 showed a Kd of 15.5 nM, a koff of 0.00211 s⁻¹ and a kon of 136000 M⁻¹ s⁻¹.
The matching figures for B10: 7.15 nM, 0.00127 s⁻¹ and 177000 M⁻¹ s⁻¹.
B11 yielded a Kd below 1 nM, a koff of 0.000131 s⁻¹ and a kon of 170000 M⁻¹ s⁻¹.
The matching figures for B12: 1.51 nM, 0.000642 s⁻¹ and 425000 M⁻¹ s⁻¹.
In the case of B13, the Kd was below 1 nM, the koff was 0.00012 s⁻¹ and the kon stood at 238000 M⁻¹ s⁻¹.
For the molecule B14, binding was characterised by a dissociation constant (Kd) of 1.89 nM, the koff was determined as 0.000296 s⁻¹ and the kon worked out at 156000 M⁻¹ s⁻¹.
Consider B15, for which binding was put at a Kd of 1.3 nM, the off-rate (koff) is 0.000587 s⁻¹ and the kon stood at 451000 M⁻¹ s⁻¹.

The next assay deals with T2, Growth Hormone Receptor (GHR) …. Put plainly: competition ELISA: Fab titrated on plate-bound GHR preincubated with 200 nM GH (the legend of 6A names B2036), anti-human Fab-HRP. The protocol:
200 nM of GHR was immobilized on a 96-well high binding plate (Geiner Bio) and blocked with 5% BSA overnight. […] The Fab binding to GHR was detected using HRP-conjugated anti-human (Fab)2 antibody (Jackson ImmunoResearch, 1:5000 dilution in PBST), and the signal was developed with TMB substrate.
On the technique in general: In an ELISA, binding on a coated surface is turned into a signal by an enzyme label.
Broadly, the EC50 is the concentration needed to bring the measured effect to its halfway point. High values mean a need for much substance, low ones an effect from little substance. Molecule B16 displayed a 50% effective concentration (EC50) of 26 nM.
